“And” between values parts separate entries of the source, which are not always exact repeats. Identical values can stand only once.
Legend:
[1] = target: mouse PROM1 SV8 lacking exon 19a, Flag-tagged (mouse); test: native gel or EMSA
[2] = target: mouse PROM1, photoreceptor-specific isoform SV8 (contains exon 19a), Flag-tagged (mouse); test: native gel or EMSA

Row | Substance | stoichiometry N [1] | stoichiometry N [2]
1 | mouse PROM1 SV8 lacking exon 19a, Flag-tagged (natural protein) | 2 and 4 | 
2 | mouse PROM1, photoreceptor-specific isoform SV8 (contains exon 19a), Flag-tagged (natural protein) |  | 2 and 4

Source: doi:10.1101/2022.03.04.482347
